Patent US20160311870A1 (SWEDISH ORPHAN BIOVITRUM AB PUBL, published 2016)

Biological target: T1, human complement component 5 (C5) (human, UniProt P01031 19-673; P01031 678-1676)
T1 construct: Bought human C5 (Quidel Cat #403 / A403); also called human C5; hC5
Assay: BLI (ForteBio), compound captured on HSA sensor, human C5 in solution
Description: Human serum albumin was immobilized to Amine Reactive 2nd generation (AR2G) Dip and Read Biosensors (Pall Life sciences (ForteBio) Cat #18-5092) by amine coupling. […] Regeneration conditions for the sensors were 10 mM Glycine, pH 2 (three pulses with 30 seconds and running buffer for 60 seconds). Each spectrogram was reference subtracted against an analogous construct containing an albumin binding domain (SEQ ID NO: 250) but without the C5 binding capacity. The data were analyzed according to Langmuir 1:1 model using ForteBio Analysis 7.1 (Pall Life sciences (ForteBio) kinetics software).

B1: PSI0383 (designed binder)
chain: AEAKYAKEVLEAWDEIDRLPNLTIEQWLAFINKLDRQPEQSSELLSEAKKLSESQAPKVEGSLAEAKEAANAELDSYGVSDFYKRLIDKAKTVEGVEALKDAILAALP
notes: N52S, D53E, D60E and loop changes D36R, D37Q, S39E against PSI0242
B1 was tested, and the “Rel. KD (KD relative to PSI0242)” value was 2.1.
